Results: the supplement of paper PMC11246515
± gives the standard deviation of the averaged measurements.

Test: total protein half-life in vivo (active degradation + dilution); higher = more stable protein
[1] = E. coli NCM3722 delta-clpP delta-lon delta-hslV, growth: N-lim chemostat, doubling time 6 h
[2] = E. coli NCM3722 delta-clpP, growth: N-lim chemostat, doubling time 6 h
[3] = E. coli NCM3722 delta-hslV, growth: N-lim chemostat, doubling time 6 h
[4] = E. coli NCM3722 delta-lon, growth: N-lim chemostat, doubling time 6 h
[5] = E. coli NCM3722 delta-smpB, growth: N-lim chemostat, doubling time 6 h
[6] = wild type E. coli NCM3722, growth: C-lim chemostat, doubling time 6 h
[7] = wild type E. coli NCM3722, growth: C-lim chemostat, doubling time 12 h
[8] = wild type E. coli NCM3722, growth: N-lim chemostat, doubling time 6 h
[9] = wild type E. coli NCM3722, growth: N-lim chemostat, doubling time 12 h
[10] = wild type E. coli NCM3722, growth: P-lim chemostat, doubling time 6 h
[11] = wild type E. coli NCM3722, growth: P-lim chemostat, doubling time 12 h
[12] = wild type E. coli NCM3722, growth: C-lim chemostat, doubling time 3 h

MNNNLQRDAIAAAIDVLNEERVIAYPTEAVFGVGCDPDSETAVMRLLELKQRPVDKGLILIAANYEQLKPYIDDTMLTDVQRETIFSRWPGPVTFVFPAPATTPRWLTGRFDSLAVRVTDHPLVVALCQAYGKPLVSTSANLSGLPPCRTVDEVRAQFGAAFPVVPGETGGRLNPSEIRDALTGELFRQG
total protein half-life in vivo [1]: 4.72 ± 0.33 h
total protein half-life in vivo [2]: 4.4 ± 0.6 h
total protein half-life in vivo [3]: 4.12 ± 0.43 h
total protein half-life in vivo [4]: 5.29 ± 0.27 h
total protein half-life in vivo [5]: 3.89 ± 0.05 h
total protein half-life in vivo [6]: 5.61 ± 0.47 h
total protein half-life in vivo [7]: 9.17 ± 0.24 h
total protein half-life in vivo [8]: 4.08 ± 0.38 h
total protein half-life in vivo [9]: 5.63 ± 1.6 h
total protein half-life in vivo [10]: 5.25 ± 0.24 h
total protein half-life in vivo [11]: 11 ± 1.6 h

MNNNTTAPTYTLRGLQLIGWRDMQHALDYLFADGQLKQGTLVAINAEKMLTIEDNAEVRELINAAEFKYADGISVVRSVRKKYPQAQVSRVAGADLWEELMARAGKEGTPVFLVGGKPEVLAQTEAKLRNQWNVNIVGSQDGYFKPEQRQALFERIHASGAQIVTVAMGSPKQEIIMRDCRLVHPDALYMGVGGTYDVFTGHVKRAPKIWQTLGLEWLYRLLSQPSRIKRQLRLLRYLRWHYTGNL
total protein half-life in vivo [1]: 6.19 ± 0.52 h
total protein half-life in vivo [2]: 6.04 ± 0.25 h
total protein half-life in vivo [3]: 6.18 ± 0.083 h
total protein half-life in vivo [4]: 7.03 ± 0.76 h
total protein half-life in vivo [5]: 6.88 ± 0.092 h
total protein half-life in vivo [12]: 3.045 ± 0.02 h
total protein half-life in vivo [6]: 5.84 ± 0.15 h
total protein half-life in vivo [7]: 12.2 ± 1.7 h
total protein half-life in vivo [8]: 6.58 ± 0.62 h
total protein half-life in vivo [9]: 12.6 ± 0.13 h
total protein half-life in vivo [10]: 5.76 ± 0.52 h
total protein half-life in vivo [11]: 13.4 ± 1.2 h

MNNSINHKFHHISRAEYQELLAVSRGDAVADYIIDNVSILDLINGGEISGPIVIKGRYIAGVGAEYTDAPALQRIDARGATAVPGFIDAHLHIESSMMTPVTFETATLPRGLTTVICDPHEIVNVMGEAGFAWFARCAEQARQNQYLQVSSCVPALEGCDVNGASFTLEQMLAWRDHPQVTGLAEMMDYPGVISGQNALLDKLDAFRHLTLDGHCPGLGGKELNAYITAGIENCHESYQLEEGRRKLQLGMSLMIREGSAARNLNALAPLINEFNSPQCMLCTDDRNPWEIAHEGHIDALIRRLIEQHNVPLHVAYRVASWSTARHFGLNHLGLLAPGKQADIVLLSDARKVTVQQVLVKGEPIDAQTLQAEESARLAQSAPPYGNTIARQPVSASDFALQFTPGKRYRVIDVIHNELITHSHSSVYSENGFDRDDVSFIAVLERYGQRLAPACGLLGGFGLNEGALAATVSHDSHNIVVIGRSAEEMALAVNQVIQDGGGLCVVRNGQVQSHLPLPIAGLMSTDTAQSLAEQIDALKAAARECGPLPDEPFIQMAFLSLPVIPALKLTSQGLFDGEKFAFTTLEVTE
total protein half-life in vivo [1]: 4.53 h
total protein half-life in vivo [2]: 3.24 ± 0.11 h
total protein half-life in vivo [12]: 2.16 ± 0.17 h
total protein half-life in vivo [6]: 3.19 ± 0.16 h
total protein half-life in vivo [7]: 4.26 ± 0.098 h
total protein half-life in vivo [10]: 3.61 ± 1.4 h
total protein half-life in vivo [11]: 4.14 ± 0.77 h

MNPIAVTLLTGFLGAGKTTLLRHILNEQHGYKIAVIENEFGEVSVDDQLIGDRATQIKTLTNGCICCSRSNELEDALLDLLDNLDKGNIQFDRLVIECTGMADPGPIIQTFFSHEVLCQRYLLDGVIALVDAVHADEQMNQFTIAQSQVGYADRILLTKTDVAGEAEKLHERLARINARAPVYTVTHGDIDLGLLFNTNGFMLEENVVSTKPRFHFIADKQNDISSIVVELDYPVDISEVSRVMENLLLESADKLLRYKGMLWIDGEPNRLLFQGVQRLYSADWDRPWGDEKPHSTMVFIGIQLPEEEIRAAFAGLRK
total protein half-life in vivo [1]: 5.11 ± 1.4 h
total protein half-life in vivo [2]: 3.49 ± 0.12 h
total protein half-life in vivo [3]: 3.471 ± 0.032 h
total protein half-life in vivo [4]: 3.97 ± 0.38 h
total protein half-life in vivo [5]: 3.65 ± 0.28 h
total protein half-life in vivo [12]: 2.876 ± 0.022 h
total protein half-life in vivo [6]: 5.139 ± 0.017 h
total protein half-life in vivo [7]: 8.715 ± 0.082 h
total protein half-life in vivo [8]: 3.52 ± 0.3 h
total protein half-life in vivo [9]: 6.14 ± 0.095 h
total protein half-life in vivo [10]: 4.95 ± 0.4 h
total protein half-life in vivo [11]: 10 ± 0.33 h

MNPLLTDSRRQALRSASHWYAVLSGERVSPQQEARWQQWYEQDQDNQWAWQQVENLRNQLGGVPGDVASRALHDTRLTRRHVMKGLLLLLGAGGGWQLWQSETGEGLRADYRTAKGTVSRQQLEDGSLLTLNTQSAADVRFDAHQRTVRLWYGEIAITTAKDALQRPFRVLTRQGQLTALGTEFTVRQQDNFTQLDVQQHAVEVLLASAPAQKRIVNAGESLQFSASEFGAVKPLDDESTSWTKDILSFSDKPLGEVIATLTRYRNGVLRCDPAVAGLRLSGTFPLKNTDAILNVIAQTLPVKIQSITRYWINISPL
total protein half-life in vivo [5]: 0.672 h

MNPQLLRVTNRIIERSRETRSAYLARIEQAKTSTVHRSQLACGNLAHGFAACQPEDKASLKSMLRNNIAIITSYNDMLSAHQPYEHYPEIIRKALHEANAVGQVAGGVPAMCDGVTQGQDGMELSLLSREVIAMSAAVGLSHNMFDGALFLGVCDKIVPGLTMAALSFGHLPAVFVPSGPMASGLPNKEKVRIRQLYAEGKVDRMALLESEAASYHAPGTCTFYGTANTNQMVVEFMGMQLPGSSFVHPDSPLRDALTAAAARQVTRMTGNGNEWMPIGKMIDEKVVVNGIVALLATGGSTNHTMHLVAMARAAGIQINWDDFSDLSDVVPLMARLYPNGPADINHFQAAGGVPVLVRELLKAGLLHEDVNTVAGFGLSRYTLEPWLNNGELDWREGAEKSLDSNVIASFEQPFSHHGGTKVLSGNLGRAVMKTSAVPVENQVIEAPAVVFESQHDVMPAFEAGLLDRDCVVVVRHQGPKANGMPELHKLMPPLGVLLDRCFKIALVTDGRLSGASGKVPSAIHVTPEAYDGGLLAKVRDGDIIRVNGQTGELTLLVDEAELAAREPHIPDLSASRVGTGRELFSALREKLSGAEQGATCITF [P0ADF6]
total protein half-life in vivo [1]: 3.58 ± 0.62 h
total protein half-life in vivo [2]: 3.24 h
total protein half-life in vivo [3]: 3.51 ± 0.99 h
total protein half-life in vivo [4]: 3.46 h
total protein half-life in vivo [5]: 2.97 ± 0.12 h
total protein half-life in vivo [12]: 3.07 ± 0.33 h
total protein half-life in vivo [7]: 8.61 h
total protein half-life in vivo [8]: 2.98 ± 0.2 h
total protein half-life in vivo [9]: 4.531 ± 0.012 h
total protein half-life in vivo [10]: 5.33 ± 0.3 h
total protein half-life in vivo [11]: 9.86 ± 0.35 h
